Measured values: the domain aggregation screens of Martell et al. (2025)

Test: soluble fraction after stress (log2 fold change); higher = more stays soluble; pooled small domains, quantitative proteomics
Settings: stress: 75 degC
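Also: 20 min heating vs room temperature control held 20 min.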

Row | Sequence | soluble fraction (log2)
1 | HMPSDTNLIGKTGIAYTTLRPGGTALIDDRKVDVVADSEYIEKDKKIKVIRVEGIKVVVTAVK | 0.164
2 | HMEYTTEELDSLLKLYFQTHESINRNEFEQLTSYTRTTASRRLKTLVQAGKLQNIGLYRFPVYKPTEGNF | -2.82
3 | HMSTKLLEVNIFDDSKWVNKTIMDSDIPEDILIVMIKRGDEVIVPKGSTIINKGDILVLSANNFDNLLN | -2.45
4 | HMAPRASDALTERELDVLRVVADGASVAEAAEMLVVSRETVKKHLGNIYAKLGVHSKMQAVALLREEGV | -0.788
5 | HMRSTIYEFTVPPGQLESIRLDVYITSFVENATRSKVQEAIKQGYVWVNGKHEKASYTMLPGDKIYIELPI | -2.65
6 | HMKIKKIWFDGDYIYGMDERNNTYRQSLLWYSKLRNASAEERERYTFSTIGIHWRELDEDVSFESF | -3.03
7 | HMNVEGEVVVPNVIGRTMKDVAVILSDLGLRMEAEGTGVAKSSQPQHGTSVKRGTVVQVRFEPLSVN | 0.648
8 | HMDTERLYAYAWQTHLKQFGLNISEEEIRQFVGVDDRIVHSFYAKTVPLDDFENTMFSLGEIIQQSL | -2.58
9 | HMREVVLNRIGSVAVQRATTRTWEEWVVTLDAEGMRGKEHRDVVGHLLRAHELTSWWAQMVSVGYEQSRGQ | -0.18
10 | HMAQLPPTATARATSDVSGLTASAALRTLLEQGFVPQIHGSGKVSRQHPPAGTLLEPGSTIQLFLEPS | 0.261
11 | HMPGRKTTFEERLSIIEDLIKHDVNYSWAVDKYHVSYQQVYGWYQKYRKSGNDPQSLRDRRGK | -3.65
12 | HMNLGETIYNLRKEKKLSQGDLAEQLSVSRQSVSKWENNSAVPDLDKLVKLSTIFGVSLDELVKG | -0.0337
13 | HMSDFSSNLRRLRKRAGLSQDALAEKLSVARQTVSSWERGNSYPDLDMLVRISDALATDPNELLYPN | -0.167
14 | HMSWEDSLLKQAREIIDMYPQKRSAVGPLLHLAQSKDGYISDDSISVISKLVGITEVQLKSVSTFYSMYK | -1.74
15 | HMGITPSIEMILEYFAFKESSETEANKFFNYYSSIGWLVGGKTKMKDWKASARNWIMNQNKFQ | -4.63
16 | HMNKETYIDALERKLWDRLDPDQLRDIISYYKDYFAMEAAKGISEEETIRKLGDPALLAKSILAAE | -0.332
17 | HMSSTSTMTVAEATIGRKVKHDKFGEGTIITVADVNGDKKLTIAFNQQGVKMLMLSMAKLEL | -3.36
18 | HMQKAQEYILVDIKGEVQTPGVYKLPVNSRVIDAIEASGGLTKKAVTTYINLSKTLKDENVIIINKKSEL | -0.59
19 | HMKNISSEEDREKALSLGITQEFIDNKGRYFITVPNKPSNFKEQALNIQKEISEQIDTVINKRFEF | 0.0903
20 | HMNSLQNNLKQARTRVGLTQGVLASQAGISRQAYSTLESGSANPSTEVALRLAQALQERVELLFYLPER | -0.948
21 | HMSNETKSAILNFAEKHHDFNIDDLFESLSKSMDINRSSLLWHLFKLVNSNVLIRTGRGMYAKV | -2.62
22 | HMSQIAENNQKYVGTIQKVLVEGTSKNNDDMLTGRTDSNKVVIFEGDKKLIGNMVELKIVSEHMWYLKGEL | -0.0812
23 | HMAPLQDENGDLTFSYNGKTYTVNVNSEEDRNSFAEDFNKENGKKFSWFKERAGLQHYVFYDTEM | -0.00699
24 | HMDDVIEVEGKVVEVLPNTKFIVELANSHKITAHISGKLRMNYIRIMKGDNVTVEMSPYDLTKGRIIWRS | -0.165
25 | HMLPNLWVMGPGDHLWRVAEVAMTKHLGRPVANHEIDGYWRRLVALNRESLIDPDNPDLVFAGQVIELPPF | -2.59
26 | HMEVLPLHQVKLKYAEADTILIALKSAQSMLSPRGQLLADNRSQQIFVYDDEAHTATLIEAIKHLDQPL | -0.166
27 | HMEVLTEPKVQSIDTHGEKSTFVIESPNPLQPDEIAKLVGADGISVRVDRTWLKSHRDSTWTYSILTVS | -0.118
28 | HMDTIRINSGSTVKEVAEYLGIPVPEVIKKLMSMGELATLTKTLSDDHIEVLAEEFEKKIKIVHVGEEAD | -0.458

Row | Sequence | soluble fraction (log2)
29 | HMGQKETIVDLLKTNGTMTQLALAEAIYGDKNHGPNIYSVLMGRVNSGAVLRTGSQPAYYSLSG | 0.209
30 | HMSTNDIFISGDKLVLKNTTGQMDVFDMAGRKVLSSTNNVSEMNVSSLPKGVYVVSASIGGSKMKAKVYK | 0.536
31 | HMKLPIEKESYRIIWDLEEESFRIRLKISENSPQEEKNILINQAIEDIENITGEPIDKSPYYVLYE | -0.627
32 | HMKEEVSVPDIKGMTYEEAEAKLAKYDLEIEKGETVKASEQYEEGQISSQEPEAGSKVKEGSTIVVDVVE | 0.185
33 | HMNQKTQMTKQILAESLKKLMLHHSFEKITIKDITDAAGFIRPTFYNHFKDKYDLVEWIFTEEI | -0.287
34 | HMSREQARRFYFDTWAKHRASQPLTDLEKIALTVMLLHPEYHSLLDKPDHYVDKDYSPEAGQTNPFLHM | -1.72
35 | HMFDDLSTNLRDLAHNYIEKYSPSKQQLKVFLLKKYLMKFKGSKTKKEISEIIDKIISNLEENKYLNDEL | 0.36
36 | HMSEITQTLSMIGKEVTLEIPDEKDKTKTTEVKGIVTEASFKDGTGKVKVNGEYYSIAYITSIRDT | ≥ 1.04
37 | HMPDYYAILEVERTADAKTIKAAYRKLALAYHPDRNPGDQAAEERFKQINEAYAVLSDPEKRARYDRYGSV | -0.131
38 | HMKITININIETLSHHIKQSGVPLGRLQESVPDYNEIVTGNKSPTYQQLEKISKLIRVPLGLLVIESPL | 0.039
39 | HMAQPIPSGSDIREAREAAGMNLRDFARMVGGGAIGTWSHYETGKPIRVKSISPEVWQRVRDFILQHGK | -0.676
40 | HMAQNILPGQKNAIKSLATSAGFSQQELDSYLSQNYGKTLNNLSQKEGASLISGLQDGSIKKP | 0.988
41 | HMSVLPAREQVAAILRQAILLRKFKEGQDLTLKDAAELVGSSITPVREAFQILENEGLIELRPNKGAVVL | -0.627
42 | HMNPYQDSILLWKSFDTPLTNEDFMGLSKEELRIARNEIYAAYGRIFTSQDLIDYFNSKPWYQGTTPA | -0.313
43 | HMSEQLHALIDRLDDIPDDELKKNWPGTLRDLVDVISAELHRQGIEPAQAGMLARKVAAAQAGYMG | -0.486
44 | HMEDKIIVTVPGEYHLERIDRFLAANLEEDLSRSLIQRYIRENLITVNGEAVRANYKVKTDDEILITFPQ | -0.842
45 | HMPHFFISTSDVNQDIITVSDKENFHHIARVLRSKVGETLLLVDENRTQYKVVIQNIDSKSITTKVVETLK | -0.925
46 | HMTTQERVSYSAFINDVETGRVAKVVISGYTIEGTRTNNSSFVTERPYGVDSNLSEVLMQNSVSIEGKA | -0.122
47 | HMVNPDAPAPLYIVNGKETDKNIALAIKPEDVQDVRIIKNTVALQVYGEKGKNGVVIINTKPGV | 0.132
48 | HMDVALEALDESDGAVRLQFSGALQTYLNDSTTAASLEAISKTFRAFYEAAGRPVDTLEVYAAGEPVT | 0.105
49 | HMIITLNIENLKRARENAGLTQTQAAQKIGVSDGTYKNYEQGKREPNGDKIVTIANAFGVTTDYLLGR | -0.475
50 | HMPDLSEDEEKIVSLLRDNNDLNVNIIVMRTQLPSATVTSSLFSLELKGVVRMYAGGMYHLM | -3.73
51 | HMASISDRIRLLRAESHMTQEEFGRIFGISKPTVSFYEHGKSVPNDQIKTAIARYFGVSVDYLLGVTD | -2.14
52 | HMPKAMAIMSEIAGTVHIDDTKKSRHVEVTGVDDNGAPVTKSYLIPFGHRLKVMEGDVLVKGALLT | -0.0702
53 | HMKKHAPSLMRQIRRELKEGKSPESLLSKAKLISDSYYRSLSFYLLIPYLSPNSKQFQEAISLAGKDID | 0.175
54 | HMLLSEPSVLKFNDDNSYEIVSGFLTEYKDKIVKIERRYKKATVKITVAGEEKEIKVSFVEDTE | -1.43
55 | HMAAGELSGEALIALIERHPMALSALATTFGHSESDLRAFVEPLARQGRLRLFESQGTLFVGGIG | -0.5
